Reference: the DeepSol protein solubility set

Assay: soluble on expression in E. coli; label from the status in PepcDB or PDB records

Sequence | soluble on expression in E. coli
AWQARGLGTARLQLVEFSAFVEPPDAVDSYQRHLFVHISQHCPSPGAPPLESVDVRQIYDKFPEKKGGLRELYDRGPPHAFFLVKFWADLNWGPSGEEAGAGGSISSGGFYGVSSQYESLEHMTLTCSSKVCSFGKQVVEKVETERAQLEDGRFVYRLLRSPMCEYLVNFLHKLRQLPERYMMNSVLENFTILQVVTNRDTQELLLCTAYVFEVSTSERGAQHHIYRLVRD | soluble
MKFLRIEDEVIYSKKRYKLKREIDKLFLDEEYFQIEPQLFEEYDEFTTINNKIPEESMVKVVNGKVMVLRADITTSIIKSLVPRWEDGLKLKLFYNSSIYKNKNTVGIKEIRQIGCEYLGEASVEADREVVKLALKILEKYNNNFILEVGSSKYIHGLLEELNLNKNCENQIKNLLYTKNTHELKVYIEELKIKHEVKELLSNILSLQGNLYNVIEKSNKFYCNNKMKQALEELKQVNNLIEECNFLDKARFDLSMITMLDYYEGIMFRGYYPNSYKEILSGGRYDSLTKEYGKEIPAIGFTLSVDELMKYVYK | soluble
MGSDKIHHHHHHMAVKVLSIDLGATNGKIYEVELKDRLTVKEIKRFRTEGTFLPGKDREHFVWNLPGFYEEIKGVLEASDAQSVGVDTWGVDFALLDENGRLVSLPYHYRDVRTKGVMKKAFEVVPKDEIFQRTGIQFMEINTLYQLYSMVLSNDPFLKTTKHLLMIPDVFNFWLSGEMVSEYTIASTSQCYSVPDGEWAYDLLEKLSIPTEIFPKVVPPGTILGKCRVKKGINVIATACHDTASAVVAVPLEGEGIYISSGTWFLVGTELERPLLSKEALERNFTNEGGYGKIRFLKNATGMWLLEECNRIWKKDYSEIIESVRNVPGFQAFLDPDREEFLHPGNMPERIRNYLERTGQKILERIGEISRLIFESLAFNCRWIVEQIKELTGKRYGKIHVVGGAVRNDLLMSFIASATGKTVVAGPVDATPIGNALVQLITLGAIANINEARKIVKESFELKTFEPKNPELWSEKYEEWRRYKGMRV | not soluble
MGSDKIHHHHHHMAKRKVPPEFVVERDDYKCIRCLACVRVCSYGANFYDENANRVYTENTKCVGCHFCEAICPTEAITVRKNDFDIRPLAHWTPEHLIGIMKQAETGGVLLTSMGNDRPYFSYFDRIVLNASQVTNPSIDPLREPMEIRTYIGRKEEKLEIEEDEDGTVKLKTEIAPQLKLEVPVMFTAMSYGSISLNAILSLARAARTVGTFFNTGEGGLPKELREFKDNMIVQVASGRFGVSADYLNAGSAVEIKIGQGAKPGIGGHLPGEKVTEPISETRMIPVGTDALSPAPHHDIYSIEDLRQLIYAIKEATRYEKPVGVKIAAVHNVAPIAAGAVRAGADYIVIDGIRGGTGAAPKITRDHVGIPIEFAVAVVDQRLREEGIRHMASIVVAGGIRNSADVIKAIALGADAVYIGTAALISLGCHLCQTCYLGKCNWGIATQDPKLTKRLNPEIGARRAANLLRAWAHEIKEILGGMGINAIESLRGNREVLRGVGLHEYELKLLGIKPAGEAW | not soluble
MNTKCLREKIEKIKPHLLKTASDTLQGYVFGCMIGVFSSSEKPSLRHVHESGKSFAKVSMIYSTTESALQLYGSKNAPLNSLISGAVAGGLGVNDRSKKSILTGAASFGLYTGMSNIFSVQGQK | not soluble
MTQANLSETLFKPRFKHPETSTLVRRFNHGAQPPVQSALDGKTIPHWYRMINRLMWIWRGIDPREILDVQARIVMSDAERTDDDLYDTVIGYRGGNWIYEWATQAMVWQQKACTEEDPQLSGRHWLHAATLYNIAAYPHLKGDDLAEQAQALSNRAYEEAAQRLPGTMRQMEFTVPGGAPITGFLHMPKGDGPFPTVLMCGGLDAMQTDYYSLYERYFAPRGIAMLTIDMPSVGFSSKWKLTQDSSLLHQHVLKALPNVPWVDHTRVAAFGFRFGANVAVRLAYLESPRLKAVACLGPVVHTLLSDFKCQQQVPEMYLDVLASRLGMHDASDEALRVELNRYSLKVQGLLGRRCPTPMLSGYWKNDPFSPEEDSRLITSSSADGKLLEIPFNPVYRNFDKGLQEITGWIEKRLC | not soluble
MGSDKIHHHHHHLDLSPEDYYGSGNFWTKEAQVEGYMNGLHNNLRSSYTMFYVLGEARGGTSRYGTSSLGTSMSYSDPIKNNMLTKDNTGISNWYDLYGRIMQVNHFISEVSNGCSFLSESKKGFYLGQAYGLRALYYFMLYKTYGGVPLITDVKVLEGGKISADALYTERSTPETILKFIKSDLEASELNFGNNVTIDRAMWTKYATLMLKAEVYMWSAKVTTGDHQATGNSDLAIAQTALQPLINQFSLLDNFSEVFSKKANDEIIFAIRFKDGEATNWAGPFIYYGNIFEGQRYGRDGKLMQDTLDLKGTVGQFLHEYKKALWDSYDDEDMRRDATFMDHYGSAQKEGFGIAMKKGIGSVNSNNQRIFDTDIIVYRYADVLLMMAEIENALSGKCANYVNEVRKRAYGKNWHPQFAYTDGSYADNELTILHERDKEFVWEGKRWFDVVRMHDANGKSLAFSVAANYPNNETPDERVPLIKESEAHKLLWPIDVNTLNNDPKLEQTPGYDK | not soluble
MTEPKPRARRSGAAPARTRDDQVVDRRRSLLKAAVKVISKRGLTGVTINSIAAEAKCSYGVVAFHFQSKEGIIFAALDHTAAEYEAYLAQLNASQRGPAERIRHMIDTDFSRKAAGHESIALWLAFWAEAARVPSFRQRCAALRVQYNEAVAADVAELAALRGRTVEAEQVALTLNAMISGLWVENLLLPITIAEGQKRGHDASLAYLRLIFPDDF | not soluble
SSWKPRSQQPDAPLGTGANRDLELPWLEQQGPASHHRRQLGPQGPPHLVADPSKKQGPWLEEEEEAYGWMDFGRRSAEDEN | soluble
MSLAKLDETLTMLKDLTDAKGIPGNEREVRQVMKSYIEPFADEVTTDRLGSLIAKKTGAENGPKIMIAGHLDEVGFMVTQITDKGFIRFQTVGGWWAQVMLAQRVTIVTKKGEITGVIGSKPPHILSPEARKKSVEIKDMFIDIGASSREEALEWGVLPGDMIVPHFEFTVMNNEKFLLAKAWDNRIGCAIAIDVLRNLQNTDHPNIVYGVGTVQEEVGLRGAKTAAHTIQPDIAFGVDVGIAGDTPGISEKEAQSKMGKGPQIIVYDASMVSHKGLRDAVVATAEEAGIPYQFDAIAGGGTDSGAIHLTANGVPALSITIATRYIHTHAAMLHRDDYENAVKLITEVIKKLDRKTVDEITYQEGGSHHHHHH | soluble
MNLHQTVEHEAAAAFAAAGIAGSPVVLQPTKNAEHGDFQINGVMGAAKKAKQNPRELAQKVADALAGNAVIESAEVAGPGFINLRLRHEFLAQNIHAALNDARF | not soluble
MNSTHHYEQLIEIFNSCFADDFNTRLIKGDDEPIYLPADAEVPYNRIVFAHGFYASAIHEISHWCIAGKARREQVDFGYWYCPDGRDAQTQSQFEDVEVKPQALDWLFCVAAGYPFNVSCDNLEGDFEPDRVVFQRRVHAQVMDYLTNGIPERPARFIKALQNYYHTPELTAEQFPWPEALN | soluble
MGSDKIHHHHHHMLSTAKERQLKIVNRLKVEQFMRIIDLVELVNYSEATVKRDLVELEKEGLVRRTRGGAMIIDNKKIDLPYLMKMNERSNETSKIRIADIAKSLIRDDMVIFLDSSSTSLHLIDVLSKFDGLQIITNGVMTASMLSEFTNARVSILGGSILTKRYTVNGAKAYNDALTYNADIAFVSCRGIDYDKGATETHEGEALIKQAFRRQSSSLVLLVTEEKVGHKFMHQSLACHDIDYLITDFKLDSDVEEQFKTHQITCLY | not soluble
MGSDKIHHHHHHMNTSGDRLRILLRECHLTATDFAANRKITPQHVNNWFKRGVPMARIDEVAELLTVNARWLRSGDGPKHPNESANENTGDDKRMAIQQTRNVLRGDVEIQIYMEVESPHGVGKTVLSEAPGQKIRLPLQVLQTMGIDPKNCMCVAMVGNSMADKIQDGSILGVDRELTQVIDGEIYALEHGGILRVRYLYRLPNGGLRLRSHNDAEYPDEVFSGEDIAREKIRILGWIFWWSTLNSRRNAMLLL | not soluble
MGAAGDAAIGRESRELMSAANVGRTISRIAHQIIEKTALDDPVGPDAPRVVLLGIPTRGVTLANRLAGNITEYSGIHVGHGALDITLYRDDLMIKPPRPLASTSIPAGGIDDALVILVDDVLYSGRSVRSALDALRDVGRPRAVQLAVLVDRGHRELPLRADYVGKNVPTSRSESVHVRLREHDGRDGVVISRGSHHHHHH | soluble
MSEAESCEETSKEHRIWKKNVPYLYDTVVTKEVEWPSLSVQWMPDVTKTENSDSSMHRMIHGTHTCGGVQNHLMISKFTITTDTPEFDDAKWDSEREEFGGYGEGSAAKWDTEIKINHPGEVHRARYMPHNPFIIASRGPSDDVYIFDYTKHPSEPKDTKFRPQLRLKGHEGEGYGMSWSNTREGHLLTAGDDGMICHWDINANQTISGQIVPQSKFKGHSSNAEDVSFHALHNFVFGSVGDDRKLNLWDLRQSKPQLTAVGHTAEVNCITFNPFSEYILATGSVDKTVALWDMRNMRKKMYTLKHHNDEIFQVSFSPHYETVLASSGSDDRVIVWDISKIQDPSSSSAASSDSVPPEVIFIHAGHTGKVADFSWNPNRPWTICSSDEFNALQVWEVSNSLVSSEKWETEMI | not soluble
MIMKVGIMSDTHDNLSAIRLAVEFFNREGVNLVLHAGDFVAPFVAKELSNLKAPLKGVFGNNDGEREGLREKLGIKDDILTLNLDGLKVVMLHGTDERVVEAFAKSQLYDIVIRGHTHKYGIQEVGRTIVVNPGEVCGYLTGIKSVALLNTTEREVRIINLKTGEILGIISLLEHHHHHH | not soluble
MTCVGDIMLAGSATPTLSRSGYDYPFAKTAQELRRGDIAMGNLEAPLTERGTEYRDKTYRFRTNPIAAAALKRAGFSVLTLANNHMMDYGNEGLQDTLATLSRHGIAHTGAGASLAEARREAVVSVRGKRIAFLAYSLTFPSEFYAGPNRPGTAPGYAPHVREDIRRAKAEADYVVVSFHWGAERAEFPKQYQTETARLAIDAGADAIIGHHPHVLQGIEFYRGKPILYSLGNFAFGSRSTAADRSVMARLTLSDEETSVELVPLNVLHRETRYQPGILAGRKGAEVIERLNRLSQPFGTVISGSAGRFRARTSGADQRIATRLEHHHHHH | not soluble
MGSDKIHHHHHHMSVETLPIILKELRLVSLLPHWQPLAEKAREQHWPVERYLAELCQLELSCREQKRLHRGLKEATLPIGKYLDTYDFSEVEGLSKKQVWHLADNAEWLKTGDNILLFGASGLGKTHIAAGLGYRLVEQGHRVKFMSASLLVQHLQKAKEELRLPEALVKLDRFAVLILDDLGYVQKSTEETSVLFELIAHRYERYSLIITSNQSFEDWDKLFSDTVMTVAAIDRLIHHAKILQCKGESYRRKEAQNKLN | not soluble
MQITQGQRIPLSTLIQGNDLTLSIVIKSAHVIDYVCFGVDANGKLSDDRYMIFFNQPTSPCNSVKQANGGDFQLALDSLPASIDRLVFTASIDGAGVMSDIQASHFSIQHQGREVARGEFSGATFAAEKAIMVADIYRKNGEWRIASNLQGYNAGLDALVGHFGGVADAPPAAPAAPARISLEKKIADAAPQLISLAKKAQVSLEKAKLTDTKARVGLVLDASGSMNPQYTRGHVQEVVDRLIPLAVHFDDDGALDCWAFGAKPQQLNAITLKNFQNFIKTDHGGWKDWELGSRINDEPKAMRMVIDYYKKSGDKTPVYILFISDGGVHQDREITKLMIEAAKLPIFWQFVGLGGRGYGILEKLDDMGGRVVDNCNFFALDRLDEVPEEKLYDLLMEEFPDWLNAAKGAGIL | not soluble
MNNNDVLRKLRYTFNFNDKQMVAIFASAGEEVSREQVSQWLKKDTDSDFVALFDTKLAVFLNGFINEKRG | not soluble
MSSVMSHTGGKEGTYPGTRASATMIGDDETNWGTKSLAILDMPFTAVMDTLLLPWDVFRKDSSVRSRVEKSEANAQATNAVIPPARMPDNLEHHHHHH | not soluble
MEDVVLPLKKVLRVATEADYKCVAENGDSCQKAFLLCDEKIRERELDMSLVDVDYTFDRNKIIFYFTAEGRVDFRELVKDLASVFRTRIELRQIGVRDEAKLEHHHHHH | not soluble
